Measured values from patent US20210170043A1, “DC-SIGN ANTIBODY CONJUGATES COMPRISING STING AGONISTS” (NOVARTIS AG, priority 2018, published 2021).

How the values were obtained:
Format in all cases: in vivo, mouse
[1] = test system: transgenic mice expressing human DC-SIGN gene (Tg+); assay: Plasma cytokine production in transgenic mice expressing human DC-SIGN (ELISA / MesoScaleDiscovery)
Protocol: FIGS. 5A-5E show exemplary data on DC-SIGN immunoconjugates inducing cytokine production in Tg+ mice. […] Plasma levels were analyzed by ELISA (IP-10 and IFNβ) or MesoScaleDiscovery Multiplex analysis (all other analytes). **** denotes p value of <0.0001 using an ANOVA with Tukey's test compared to Tg-2B2 hlgG1 DAPA C1 group.
(§1) Mice were bled 6 hours after dosing to collect plasma for analysis of circulating cytokine levels.

[2] = test system: tumor and splenic immune cells; assay: Flow cytometry of spleen and tumor immune cells in tumor-bearing DC-SIGN transgenic mice (PDL1, T cell infiltration and activation); conditions: Tg+ mice
Description: FIGS. 19A-19B show exemplary data on DC-SIGN immunoconjugates inducing upregulation of surface PDL1.
FIGS. 20A-20F show exemplary data on DC-SIGN immunoconjugates enhancing tumor T cell infiltration and T cell activation.

[3] = test system: transgenic mice expressing human DC-SIGN gene (Tg+); assay: Plasma cytokine and chemokine levels in human DC-SIGN transgenic mice; conditions: 6 hours post dose
Protocol: Blood was collected at 6 hours post dose to analyze plasma cytokine and chemokine levels and spleens were analyzed at 24 hours post dose to look at dendritic cell activation.
as §1
Plasma was collected at indicated timepoints and analyzed with a Mouse IP-10 Platinum ELISA kit (eBioscience Affymetrix). Plasma was diluted 1:100 and the protocol was followed according to the manufacturer's recommendations. Data was collected using an Enspire spectro-photometer using […] as the primary wavelength.
Plasma was collected at indicated timepoints and analyzed with a Mouse IFN-beta ELISA kit (R&D Systems) according to the manufacturer's recommendations. Data was collected using an Enspire spectro-photometer using […] as the primary wavelength.
Plasma was collected at indicated timepoints and analyzed with a mouse Proinflammatory Panel 1 (mouse) Kit V-PLEX™ 10 plex from MesoScale Discovery. 25 μL of plasma per sample was used and protocol was followed according to the manufacturer's recommendations. Data were collected and analyzed using a Sector Imager 6000.
Human DC-SIGN transgenic mice (Tg+) (Schaefer et al., J. Immunol. (2008) 180 (10) 6836-6845) were bred to Signr1 deficient mice (−/− or KO) (Orr et al., Glycobiology (2013) 23(3): 363-380). Human DC-SIGN expression was checked using PCR to genotype the mice. Human DC-SIGN Tg+ Signr1−/− mice or human DC-SIGN Tg− Signr1−/− mice were tested with compounds as indicated in the above examples.

B1: 2B2 (DAPA) C1 (conjugate)
heavy: QVQLVQSGAEVKKPGASVKVSCKASGYTFTNYGINWVRQAPGQRLEWMGYIYIGNDYTEYNERFKGRVTITSDTSASTAYMELSSLRSEDTAVYYCARLYYGSSLYSYAMDYWGQGTTVTVSSASTKGPSVFPLAPSSKSTSGGTAALGCLVKDYFPCPVTVSWNSGALTSGVHTFPAVLQSSGLYSLSSVVTVPSSSLGTQTYICNVNHKPSNTKVDKRVEPKSCDKTHTCPPCPAPELLGGPSVFLFPPKPKDTLMISRTPEVTCVVVAVSHEDPEVKFNWYVDGVEVHNAKTKPREEQYNSTYRVVSVLTVLHQDWLNGKEYKCKVSNKALAAPIEKTISKAKGQPREPQVYTLPPSREEMTKNQVSLTCLVKGFYPCDIAVEWESNGQPENNYKTTPPVLDSDGSFFLYSKLTVDKSRWQQGNVFSCSVMHEALHNHYTQKSLSLSPGK
light: DIVMTQSPLSLPVTPGEPASISCRSSKSLLHSSGNTYLYWFLQKPGQSPQLLISRMSNLASGVPDRFSGSGSGTDFTLKISRVEAEDVGVYYCMQHLEYPYTFGGGTKVEIKRTVAAPSVFIFPPSDEQLKSGTASVVCLLNNFYPREAKVQWKVDNALQSGNSQESVTEQDSKDSTYSLSSTLTLSKADYEKHKVYACEVTHQGLSSPVTKSFNRGEC
- circulating plasma IL-12p70 [1]: increased
- circulating plasma IP-10 [1]: increased
- circulating plasma TNFα [1]: increased
- surface PDL1 on splenic CD11c high dendritic cells ([2]; 1 mg/kg): significant upregulation
- surface PDL1 on tumor resident dendritic cells and mMDSCs ([2]; 1 mg/kg): significant upregulation
- CD3+ T cells in tumor ([2]; 24 and 48 hours post dosing): Increased
- T cell activation as measured by CD69 upregulation on CD4 and CD8 T cells in tumors ([2]; 24 hours post dose): Enhanced T cell activation
- CD8+ T cells in tumors ([2]; day 7 post dose): significant increase
- FoxP3+ T regulatory cells in tumors ([2]; day 7 post dose): significant decrease
- infiltration of CD8 T cells in tumors ([2]; in combination with anti-PDL1): enhanced infiltration of CD8 T cells
- plasma IL-12p70 ([3]; 1 mg/kg i.v. (Fab2 1.33 mg/kg)): increased
- plasma IP-10 ([3]; 1 mg/kg i.v. (Fab2 1.33 mg/kg, Fab 1.3 mg/kg)): increased
- plasma TNFα ([3]; 1 mg/kg i.v.): increased
